{
  "source": "paper PMC13395435",
  "key": {"3xHA-NLuc-dSP-AVR-Pia": {"biological_target": "3xHA-NLuc-dSP-AVR-Pia (UniProt B9WZW9)", "experiment": "split luciferase complementation assay", "settings": "parent: est. 3400; read off a plot"}, "[1]": {"biological_target": "recombinant OsHIPP21-HMA (rice)", "experiment": "ITC"}, "[2]": {"biological_target": "recombinant OsHPP09-HMA (rice)", "experiment": "ITC"}, "[3]": {"biological_target": "recombinant OsHPP10-HMA (rice)", "experiment": "ITC"}, "[4]": {"biological_target": "recombinant OsHPP11-HMA (rice)", "experiment": "ITC"}, "[5]": {"biological_target": "recombinant OsHPP09-HMA (rice)", "experiment": "NMR titration"}, "OsHIPP21-HMA (rice)": {"biological_target": "OsHIPP21-HMA (rice)", "experiment": "ITC"}, "OsHPP09-HMA (rice)": {"biological_target": "OsHPP09-HMA (rice)", "experiment": "ITC"}, "OsHPP10-HMA (rice)": {"biological_target": "OsHPP10-HMA (rice)", "experiment": "ITC"}, "OsHPP11-HMA (rice)": {"biological_target": "OsHPP11-HMA (rice)", "experiment": "ITC"}},
  "note": "Values joined by “and” are separate entries in the source; they are usually repeats but may differ in a detail not shown here. Equal values may be shown once.",
  "data": [
    {"substance": "3xFlag-CLuc-OsHPP09 full-length A37W", "values": [
      {"measurement": "response", "setting": "3xHA-NLuc-dSP-AVR-Pia", "value": 1300}
    ]},
    {"substance": "3xFlag-CLuc-OsHPP09 full-length D33A", "values": [
      {"measurement": "response", "setting": "3xHA-NLuc-dSP-AVR-Pia", "value": 2800}
    ]},
    {"substance": "3xFlag-CLuc-OsHPP09 full-length Q20A", "values": [
      {"measurement": "response", "setting": "3xHA-NLuc-dSP-AVR-Pia", "value": 3100}
    ]},
    {"substance": "3xFlag-CLuc-OsHPP09 full-length D33H", "values": [
      {"measurement": "response", "setting": "3xHA-NLuc-dSP-AVR-Pia", "value": 2600}
    ]},
    {"substance": "3xFlag-CLuc-OsHPP09 full-length D33R", "values": [
      {"measurement": "response", "setting": "3xHA-NLuc-dSP-AVR-Pia", "value": 2000}
    ]},
    {"substance": "3xFlag-CLuc-OsHPP09 full-length K19A", "values": [
      {"measurement": "response", "setting": "3xHA-NLuc-dSP-AVR-Pia", "value": 1800}
    ]},
    {"substance": "recombinant AVR-Pia (from UniProt B9WZW9 1-85) (natural protein)", "values": [
      {"measurement": "Kd", "setting": "[1]", "value": 1290, "unit": "nM"},
      {"measurement": "Kd", "setting": "[2]", "value": 115, "unit": "nM"},
      {"measurement": "Kd", "setting": "[3]", "value": 5.26, "unit": "µM"},
      {"measurement": "Kd", "setting": "[4]", "value": 772, "unit": "nM"},
      {"measurement": "Kd", "setting": "[5]", "value": "< 100", "unit": "nM"}
    ]},
    {"substance": "AVR-Pia (natural protein)", "values": [
      {"measurement": "Kd", "setting": "OsHIPP21-HMA (rice)", "value": "1970 nM and 2330 nM"},
      {"measurement": "Kd", "setting": "OsHPP09-HMA (rice)", "value": "125 nM and 185 nM"},
      {"measurement": "Kd", "setting": "OsHPP10-HMA (rice)", "value": "6.51 µM and 7.47 µM"},
      {"measurement": "Kd", "setting": "OsHPP11-HMA (rice)", "value": "925 nM and 929 nM"}
    ]},
    {"substance": "3xFlag-CLuc-OsHPP09 full-length K19W", "values": [
      {"measurement": "response", "setting": "3xHA-NLuc-dSP-AVR-Pia", "value": 1500}
    ]}
  ]
}
